From publication PMC7442955, “Biochemical and functional characterization of a meiosis-specific Pch2/ORC AAA+ assembly” (Life Science Alliance, 2020)

B1: His–MBP–Pch2 (natural protein, budding yeast, UniProt P38126 1-564, looked up)
chain: MSYIVDLQVRGSSLRVIKCMFREDEQISSLHSGSDSKQNSNKKLGEFLNLLKAVVKRKLESFPKDRLKTSIITGQELMREGQGSIEIKDPPTEAQQHLIRSLAKVLLHQFSSINGKVNTVNEGQDNLFLSLFVKKISIEQQSTSHVSIKLNFHEKINLGQHIDSILDSEETNESDTYHMGSVDEFIIYPFCCLEEQDELKNGSILSTEFDKIDLELDEDDGFEGETLNNCINSVGNFDIPLSKQTLNLVNISYLPGTTFEGQWESLYFGNNIKERLYSYATISLKIARFKQTGDSNQEDITTLITNNKLLLVHGPPGTGKTTLCKALCQKLSVRREFSDGSDTIDTNYKGIIIELSCARIFSKWFGESSKNISIVFKDIEELLKVNEGRGIFICLLIDEVEAIASSRTNLSSRNESTDGIRVVNTLLTQLDRLKKYHNFLALATSNLLDSLDDAFVDRADGVFYVGNPTAEGILHILKVCIEEMITSGIILFHARSTGVKFFNKYQDILRKIAIKCSTVDISGRTIRKLPLMCLSEYFRTFPVDDDEFVLALAMSARKLSAARK
notes: Pch2, budding yeast; from codon-optimized cDNA in a pLIB–His–MBP vector; Apparent hexamer by SEC, with a minor fraction that appears monomeric; also called purified Pch2; full-length Pch2; source: Tnao38 insect cells (baculovirus), purified (TALON, amylose, SEC); not shown: His, N-terminal, kept; MBP, N-terminal, kept

What was measured:
[1] = target: T1, His–Orc1 (subunit of the insect cell–purified ORC) (budding yeast, UniProt P54784 1-914); test: cross-linking; XL-MS: 0.75 μM His–MBP–Pch2 with 1.5 μM His–ORC, 30 mM HEPES pH 7.5, 150 mM NaCl, 2 mM TCEP, 90 min at 4°C; 3 mM DSBU, 25°C, 1 h; MeroX, 2% FDR; conditions: both partners purified
T1 construct: Orc1, budding yeast; Stood in the assays as a subunit of m16; source: Tnao38 insect cells, co-expressed with Orc2-6, purified as part of His–ORC
T1 sequence (looked up): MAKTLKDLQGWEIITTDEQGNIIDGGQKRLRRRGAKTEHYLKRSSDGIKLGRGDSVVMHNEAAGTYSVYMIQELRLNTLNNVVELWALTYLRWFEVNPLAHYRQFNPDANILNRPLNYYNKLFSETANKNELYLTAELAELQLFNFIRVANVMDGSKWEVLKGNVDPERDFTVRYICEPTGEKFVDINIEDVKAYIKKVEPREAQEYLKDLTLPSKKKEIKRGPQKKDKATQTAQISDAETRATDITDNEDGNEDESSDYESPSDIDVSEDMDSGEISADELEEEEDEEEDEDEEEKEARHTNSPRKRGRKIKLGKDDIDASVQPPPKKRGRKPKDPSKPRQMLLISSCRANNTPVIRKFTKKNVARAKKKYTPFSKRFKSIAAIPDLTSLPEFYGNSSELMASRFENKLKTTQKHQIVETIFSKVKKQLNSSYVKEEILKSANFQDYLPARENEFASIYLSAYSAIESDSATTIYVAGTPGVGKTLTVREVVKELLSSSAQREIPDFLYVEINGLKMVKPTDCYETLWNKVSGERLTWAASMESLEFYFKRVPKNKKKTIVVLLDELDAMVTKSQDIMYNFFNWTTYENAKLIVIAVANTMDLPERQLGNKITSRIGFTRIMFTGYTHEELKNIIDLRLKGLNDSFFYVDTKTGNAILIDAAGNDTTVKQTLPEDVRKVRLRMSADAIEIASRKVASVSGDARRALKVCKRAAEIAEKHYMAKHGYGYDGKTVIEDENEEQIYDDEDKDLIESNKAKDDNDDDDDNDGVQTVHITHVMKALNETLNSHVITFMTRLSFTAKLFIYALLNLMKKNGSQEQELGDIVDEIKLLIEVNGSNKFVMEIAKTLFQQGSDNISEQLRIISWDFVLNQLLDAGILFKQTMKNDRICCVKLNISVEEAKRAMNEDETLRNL

[2] = target: the molecule itself; test: SEC; single purified proteins: His–MBP–Pch2 (2 μM), His–MBP–Pch2-243-564 (2 μM), His–MBP–Pch2-2-144 (6 μM; Superdex 200 5/150 GL); 30 mM HEPES pH 7.5, 150 mM NaCl, 3% glycerol, 2 mM TCEP, 1 mM MgCl2
[3] = target: T2, ORC (Orc1-6, with Orc1 carrying a CBP tag) purified from budding yeast (budding yeast, UniProt P54784 1-914; P32833 1-620; P54790 1-616; P54791 1-529; P50874 1-479; P38826 …); test: pull-down; ORC from budding yeast bound to calmodulin beads, His–MBP–Pch2 added for 1 h on ice; 30 mM HEPES pH 7.5, 200 mM NaCl, 2 mM CaCl2; with or without MgCl2 and ADP, ATP or ATP analogs; Coomassie staining; conditions: both partners purified
T2 construct: Orc1, budding yeast; Orc2, budding yeast; Orc3, budding yeast; Orc4, budding yeast; Orc5, budding yeast; Orc6, budding yeast; also called budding yeast ORC (CBP–Orc1); budding yeast–purified ORC; source: purified from α-factor–arrested vegetative budding yeast cells (yGV3358), concentrated on calmodulin beads; copies: + + + + +

6xHis–Hop1 = target: T3, 6xHis–Hop1 (budding yeast, UniProt P20050 1-605); test: pull-down; His–MBP–Pch2 (1 μM, as hexamer) on amylose beads, 6 μM Hop1 added, 90 min on ice; 50 mM Tris pH 7.5, 50 mM NaCl, 10 mM imidazole, 0.1% Tween-20, 1 mM MgCl2; with or without 200 μM ATP or ATPγS; Coomassie staining; conditions: both partners purified
T3 construct: Hop1, HORMA domain protein, substrate of Pch2; source: E. coli BL21 RIPL, purified (TALON, heparin, SEC); not shown: 6xHis, N-terminal, kept
T3 sequence (looked up): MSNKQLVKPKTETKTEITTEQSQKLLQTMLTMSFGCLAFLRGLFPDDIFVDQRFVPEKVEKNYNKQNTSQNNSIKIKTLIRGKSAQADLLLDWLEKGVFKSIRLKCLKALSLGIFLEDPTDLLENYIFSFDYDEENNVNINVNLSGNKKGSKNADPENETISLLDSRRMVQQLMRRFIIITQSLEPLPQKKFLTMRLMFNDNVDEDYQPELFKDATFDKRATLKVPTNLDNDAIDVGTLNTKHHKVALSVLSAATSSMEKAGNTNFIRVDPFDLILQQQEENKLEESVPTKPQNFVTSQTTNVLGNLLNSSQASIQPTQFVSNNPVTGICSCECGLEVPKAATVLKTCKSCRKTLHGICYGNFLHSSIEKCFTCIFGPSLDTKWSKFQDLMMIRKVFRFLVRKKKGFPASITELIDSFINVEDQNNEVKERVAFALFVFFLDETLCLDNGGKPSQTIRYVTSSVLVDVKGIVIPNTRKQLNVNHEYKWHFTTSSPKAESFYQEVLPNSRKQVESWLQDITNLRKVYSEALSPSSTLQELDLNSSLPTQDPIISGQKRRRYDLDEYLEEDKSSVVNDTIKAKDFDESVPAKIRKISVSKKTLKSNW

[4] = target: T4, His–ORC (His–Orc1, Orc2-6) purified from insect cells (budding yeast, UniProt P54784 1-914; P32833 1-620; P54790 1-616; P54791 1-529; P50874 1-479; P38826 …, a fraction of Orc6 phosphorylated (double band, collapsed by λ-phosphatase); sites not stated); test: pull-down; His–MBP–Pch2 (1 μM as hexamer) or fragments (6 μM of 2-144) on amylose beads, 1 μM ORC added, 90 min on ice; 30 mM HEPES pH 7.5, 150 mM NaCl, 10 mM imidazole, 0.1% Tween-20, 10 mM MgCl2; Coomassie staining or Western blot (α-MBP, α-ORC); conditions: both partners purified
T4 construct: Orc1, budding yeast; Orc2, budding yeast; Orc3, budding yeast; Orc4, budding yeast; Orc5, budding yeast; Orc6, budding yeast; Total size about 414 kD as printed; also called His–Orc1-6; origin recognition complex; source: Tnao38 insect cells coinfected with two baculoviruses, purified (His-tag resin, SEC); copies: + + + + +

[5] = target: T5, dephosphorylated His–ORC (λ-phosphatase treated) (budding yeast, UniProt P54784 1-914; P32833 1-620; P54790 1-616; P54791 1-529; P50874 1-479; P38826 …); test: as above; conditions: both partners purified
T5 construct: Orc1, budding yeast; as in m16; Orc2, budding yeast; Orc3, budding yeast; Orc4, budding yeast; Orc5, budding yeast; Orc6, budding yeast; as in m16, dephosphorylated (single band); also called dephosphorylated ORC; source: Tnao38 insect cells, purified, then treated with λ-phosphatase at 4°C overnight; copies: + + + + +

His–MBP–Pch2 = target: B1; test: cross-linking; XL-MS: 0.75 μM His–MBP–Pch2 with 1.5 μM His–ORC, 30 mM HEPES pH 7.5, 150 mM NaCl, 2 mM TCEP, 90 min at 4°C; 3 mM DSBU, 25°C, 1 h; MeroX, 2% FDR; conditions: both partners purified

T4 sequence (P32833 whole entry, chain 2 of 4, the tested form may be a part): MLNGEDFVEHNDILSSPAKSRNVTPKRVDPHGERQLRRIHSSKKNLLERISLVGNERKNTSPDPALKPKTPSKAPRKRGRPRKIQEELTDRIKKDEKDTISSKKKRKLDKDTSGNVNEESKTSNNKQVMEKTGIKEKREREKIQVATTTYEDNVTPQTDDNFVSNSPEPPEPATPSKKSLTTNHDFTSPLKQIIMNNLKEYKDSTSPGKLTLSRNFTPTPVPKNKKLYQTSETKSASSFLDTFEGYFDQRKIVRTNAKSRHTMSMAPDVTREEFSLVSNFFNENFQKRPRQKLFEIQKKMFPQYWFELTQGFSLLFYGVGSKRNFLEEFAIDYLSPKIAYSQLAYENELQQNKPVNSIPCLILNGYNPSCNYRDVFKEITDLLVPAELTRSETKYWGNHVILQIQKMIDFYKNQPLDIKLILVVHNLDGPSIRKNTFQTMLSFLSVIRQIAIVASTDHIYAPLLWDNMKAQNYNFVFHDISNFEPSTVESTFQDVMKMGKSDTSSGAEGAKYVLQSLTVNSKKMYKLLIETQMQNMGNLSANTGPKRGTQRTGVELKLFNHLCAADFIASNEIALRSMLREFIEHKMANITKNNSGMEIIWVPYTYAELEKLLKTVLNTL
T4 sequence (P54790 whole entry, chain 3 of 4, the tested form may be a part): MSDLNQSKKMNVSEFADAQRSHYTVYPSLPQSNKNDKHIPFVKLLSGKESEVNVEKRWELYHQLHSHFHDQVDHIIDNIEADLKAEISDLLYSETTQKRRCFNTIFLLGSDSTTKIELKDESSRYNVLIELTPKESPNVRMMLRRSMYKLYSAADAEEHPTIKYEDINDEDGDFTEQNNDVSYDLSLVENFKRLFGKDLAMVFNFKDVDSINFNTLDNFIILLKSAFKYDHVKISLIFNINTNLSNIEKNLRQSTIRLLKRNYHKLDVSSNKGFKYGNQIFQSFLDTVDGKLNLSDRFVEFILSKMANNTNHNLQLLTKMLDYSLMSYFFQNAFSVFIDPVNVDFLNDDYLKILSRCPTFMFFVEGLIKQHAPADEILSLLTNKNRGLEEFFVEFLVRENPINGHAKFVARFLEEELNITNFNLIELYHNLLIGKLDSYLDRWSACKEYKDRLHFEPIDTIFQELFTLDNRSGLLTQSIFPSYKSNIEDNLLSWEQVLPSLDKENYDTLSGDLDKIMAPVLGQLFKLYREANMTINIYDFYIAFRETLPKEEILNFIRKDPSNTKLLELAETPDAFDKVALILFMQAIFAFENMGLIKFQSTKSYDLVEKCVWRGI
T4 sequence (P54791 whole entry, chain 4 of 4, the tested form may be a part): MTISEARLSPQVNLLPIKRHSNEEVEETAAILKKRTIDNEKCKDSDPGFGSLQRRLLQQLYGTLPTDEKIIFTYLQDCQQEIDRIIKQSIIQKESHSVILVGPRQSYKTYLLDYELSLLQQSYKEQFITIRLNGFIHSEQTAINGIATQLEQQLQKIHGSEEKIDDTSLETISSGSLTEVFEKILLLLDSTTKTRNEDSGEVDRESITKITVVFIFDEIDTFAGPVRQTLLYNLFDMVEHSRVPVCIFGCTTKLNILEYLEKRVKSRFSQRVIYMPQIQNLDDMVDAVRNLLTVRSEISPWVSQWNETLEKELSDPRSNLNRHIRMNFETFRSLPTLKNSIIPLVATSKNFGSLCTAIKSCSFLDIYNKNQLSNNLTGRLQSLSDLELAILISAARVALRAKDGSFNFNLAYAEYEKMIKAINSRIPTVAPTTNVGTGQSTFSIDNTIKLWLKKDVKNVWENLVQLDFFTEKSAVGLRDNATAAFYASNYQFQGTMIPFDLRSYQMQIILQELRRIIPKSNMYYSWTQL
T4 sequence (P38826 whole entry, chain 6 of 4, the tested form may be a part): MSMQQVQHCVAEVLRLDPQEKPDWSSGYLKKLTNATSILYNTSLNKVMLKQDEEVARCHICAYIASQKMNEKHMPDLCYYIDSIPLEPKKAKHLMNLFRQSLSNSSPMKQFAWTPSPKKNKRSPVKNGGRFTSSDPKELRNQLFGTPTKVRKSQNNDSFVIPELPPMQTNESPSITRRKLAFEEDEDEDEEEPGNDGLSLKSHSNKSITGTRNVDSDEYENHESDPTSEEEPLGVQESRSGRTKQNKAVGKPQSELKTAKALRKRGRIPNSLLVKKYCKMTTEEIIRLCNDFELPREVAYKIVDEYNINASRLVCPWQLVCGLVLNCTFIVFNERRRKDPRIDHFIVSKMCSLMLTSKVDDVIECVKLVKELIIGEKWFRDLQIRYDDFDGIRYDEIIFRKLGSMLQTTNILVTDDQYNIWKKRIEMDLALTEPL
T2 sequence (P32833 whole entry, chain 2 of 4): as the sequence (P32833 whole entry, chain 2 of 4, the tested form may be a part) above
T2 sequence (P54790 whole entry, chain 3 of 4): as the sequence (P54790 whole entry, chain 3 of 4, the tested form may be a part) above
T2 sequence (P54791 whole entry, chain 4 of 4): as the sequence (P54791 whole entry, chain 4 of 4, the tested form may be a part) above
T2 sequence (P38826 whole entry, chain 6 of 4): as the sequence (P38826 whole entry, chain 6 of 4, the tested form may be a part) above
T5 sequence (P32833 whole entry, chain 2 of 4): as the sequence (P32833 whole entry, chain 2 of 4, the tested form may be a part) above
T5 sequence (P54790 whole entry, chain 3 of 4): as the sequence (P54790 whole entry, chain 3 of 4, the tested form may be a part) above
T5 sequence (P54791 whole entry, chain 4 of 4): as the sequence (P54791 whole entry, chain 4 of 4, the tested form may be a part) above
T5 sequence (P38826 whole entry, chain 6 of 4): as the sequence (P38826 whole entry, chain 6 of 4, the tested form may be a part) above

| Binder | binding result [1] | stoichiometry N [2] | binding result [3] | binding result (6xHis–Hop1) | binding result [4] | binding result [5] | binding result (His–MBP–Pch2) |
| --- | --- | --- | --- | --- | --- | --- | --- |
| B1 | binds | 6 | binds | binds | binds | binds |  |
| Orc5 (subunit of the insect cell–purified ORC) (natural protein, budding yeast, UniProt P50874 1-479, looked up, Orc5, budding yeast; Stood in the assays as a subunit of m16; source: Tnao38 insect cells, co-expressed, purified as part of His–ORC) MNVTTPEVAFREYQTNCLASYISADPDITPSNLILQGYSGTGKTYTLKKYFNANPNLHAVWLEPVELVSWKPLLQAIARTVQYKLKTLYPNIPTTDYDPLQVEEPFLLVKTLHNIFVQYESLQEKTCLFLILDGFDSLQDLDAALFNKYIKLNELLPKDSKINIKFIYTMLETSFLQRYSTHCIPTVMFPRYNVDEVSTILVMSRCGELMEDSCLRKRIIEEQITDCTDDQFQNVAANFIHLIVQAFHSYTGNDIFALNDLIDFKWPKYVSRITKENIFEPLALYKSAIKLFLSTDDNLSENGQGESAITTNRDDLENSQTYDLSIISKYLLIASYICSYLEPRYDASIFSRKTRIIQGRAAYGRRKKKEVNPRYLQPSLFAIERLLAIFQAIFPIQGKAESGSLSALREESLMKANIEVFQNLSELHTLKLIATTMNKNIDYLSPKVRWKVNVPWEIIKEISESVHFNISDYFSDIHE |  |  |  |  |  |  | binds |
| His–MBP–Pch2-2-144 (domain or fragment, budding yeast, UniProt P38126 2-144, looked up, Pch2, budding yeast, part of the NH2-terminal domain; Monomer by SEC; also called minimal NH2-terminal fragment of Pch2; source: Tnao38 insect cells (baculovirus), purified (TALON, amylose, SEC); not shown: His, N-terminal, kept; MBP, N-terminal, kept) SYIVDLQVRGSSLRVIKCMFREDEQISSLHSGSDSKQNSNKKLGEFLNLLKAVVKRKLESFPKDRLKTSIITGQELMREGQGSIEIKDPPTEAQQHLIRSLAKVLLHQFSSINGKVNTVNEGQDNLFLSLFVKKISIEQQSTS |  |  |  |  | binds |  |  |
